Test results from patent EP0638644A1 (F. HOFFMANN-LA ROCHE AG, dated 1995).

Assays:
[1] = molecular target: T1, natural human IL-12 receptor on IL-12R positive human cells (human, UniProt P42701 24-662); assay: steady state 125I-IL-12 binding to Kit-225 cells, Scatchard, site 2 of 3
T1 construct: whole, on cells; IL-12 sees up to 3 classes of sites on these cells; also called natural IL-12R

[2] = molecular target: T2, recombinant human IL-12 receptor (clone No. 5, SEQ ID NO:2) expressed in COS cells (human); assay: steady state binding of 125I-IL-12 to COS cells expressing rIL-12R, Scatchard (Figure 4A)
T2 construct: 662 amino acid precursor; signal peptide cleavage is only predicted (after Gln20, Ala23 or Cys24); On COS cells present as monomers and disulfide-bonded dimers/oligomers; also called rIL-12R; human rIL-12R

[3] = molecular target: T1, natural human IL-12 receptor on IL-12R …; assay: steady state 125I-IL-12 binding to K6 cells, Scatchard, site 2 of 3
[4] = molecular target: T3, detergent solubilized IL-12R from IL-12R positive human cells (human, UniProt P42701 24-662); assay: steady state binding of 125I-IL-12 to IL-12R immunoprecipitated by immobilized 2-4E6 from detergent extract of K6 cells, Scatchard
T3 construct: Whole natural receptor protein in detergent extract, not a truncated soluble form; also called soluble IL-12R; approximately 90 kDa protein

[5] = molecular target: T1, natural human IL-12 receptor on IL-12R …; assay: steady state 125I-IL-12 binding to PHA-PBMC (5-7 days), Scatchard, site 3 of 3
[6] = molecular target: T1, natural human IL-12 receptor on IL-12R …; assay: steady state 125I-IL-12 binding to K6 cells, Scatchard, site 3 of 3
[7] = molecular target: T1, natural human IL-12 receptor on IL-12R …; assay: steady state 125I-IL-12 binding to PHA-PBMC (5-7 days), Scatchard, site 2 of 3
[8] = molecular target: T1, natural human IL-12 receptor on IL-12R …; assay: steady state 125I-IL-12 binding to PHA-PBMC (5-7 days), Scatchard, site 1 of 3
[9] = molecular target: T1, natural human IL-12 receptor on IL-12R …; assay: steady state 125I-IL-12 binding to YT cells, Scatchard, site 2 of 2
[10] = molecular target: T4, human IL-12 receptor subunit stably expressed on murine CTLL cells (human); assay: IL-12 binding to murine CTLL cells stably expressing the IL-12 receptor subunit
T4 construct: CTLL transfectants express only receptor subunit monomers; also called CTLL transfectant; CTLL cell transfectant

[11] = molecular target: T1, natural human IL-12 receptor on IL-12R …; assay: steady state 125I-IL-12 binding to YT cells, Scatchard, site 1 of 2
[12] = molecular target: T2, recombinant human IL-12 receptor (clone …); assay: equilibrium binding of labelled human IL-12 to COS cells expressing clone 5, Scatchard, single site (Figure 19A)
[13] = molecular target: T1, natural human IL-12 receptor on IL-12R …; assay: steady state 125I-IL-12 binding to Kit-225 cells, Scatchard, site 1 of 3
[14] = molecular target: T1, natural human IL-12 receptor on IL-12R …; assay: steady state 125I-IL-12 binding to K6 cells, Scatchard, site 1 of 3
[15] = molecular target: T1, natural human IL-12 receptor on IL-12R …; assay: steady state 125I-IL-12 binding to Kit-225 cells, Scatchard, site 3 of 3

- Kd [1]: 210 pM
- Kd [2]: 2000 to 6000 pM
- Kd [3]: 57 pM
- Kd [4]: 188 pM
- Kd [5]: 1800 pM
- Kd [6]: 2400 pM
- Kd [7]: 84 pM
- Kd [8]: 18 pM
- Kd [9]: 109 pM
- Kd [10]: ≥ 50000 pM
- Kd [11]: 6 pM
- Kd [12]: 3400 pM
- Kd [13]: 23 pM
- Kd [14]: 16 pM
- Kd [15]: 2360 pM
B1: Recombinant human IL-12 (ligand)
chain 1: RNLPVATPDPGMFPCLHHSQNLLRAVSNMLQKARQTLEFYPCTSEEIDHEDITKDKTSTVEACLPLELTKNESCLNSRETSFITNGSCLASRKTSFMMALCLSSIYEDLKMYQVEFKTMNAKLLMDPKRQIFLDQNMLAVIDELMQALNFNSETVPQKSSLEEPDFYKTKIKLCILLHAFRIRAVTIDRVMSYLNAS
chain 2: IWELKKDVYVVELDWYPDAPGEMVVLTCDTPEEDGITWTLDQSSEVLGSGKTLTIQVKEFGDAGQYTCHKGGEVLSHSLLLLHKKEDGIWSTDILKDQKEPKNKTFLRCEAKNYSGRFTCWWLTTISTDLTFSVKSSRGSSDPQGVTCGAATLSAERVRGDNKEYEYSVECQEDSACPAAEESLPIEVMVDAVHKLKYENYTSSFFIRDIIKPDPPKNLQLKPLKNSRQVEVSWEYPDTWSTPHSYFSLTFCVQVQGKSKREKKDRVFTDKTSATVICRKNASISVRAQDRYYSSSWSEWASVPCS
modifications: ¹²⁵I label (Iodogen method) where used as tracer
notes: 75-KDa heterodimer of p35 and p40; also called HuIL-12; HUIL-12
